Source: patent US20250277018A1 (published 2025)

Legend:
Test in all cases: ELISA
4A01v5 = molecular target: 4A01v5
4A01v6 = molecular target: 4A01v6
4A01v8 = molecular target: 4A01v8
4A01v4 = molecular target: 4A01v4
4A01v3-3 = molecular target: 4A01v3-3
4A01v3-7 = molecular target: 4A01v3-7
4A01v3-1 = molecular target: 4A01v3-1
4A01v3-8 = molecular target: 4A01v3-8
4A01v9 = molecular target: 4A01v9
4A01v3 = molecular target: 4A01v3
4A01v3-4 = molecular target: 4A01v3-4
4A01v1 = molecular target: 4A01v1
4A01v3-5 = molecular target: 4A01v3-5

- Kd (4A01v5): 0.26 nM
- Kd (4A01v6): 0.273 nM
- Kd (4A01v8): 0.328 nM
- Kd (4A01v4): 0.32 nM
- Kd (4A01v3-3): 0.152 nM
- Kd (4A01v3-7): 0.123 nM
- Kd (4A01v3-1): 0.13 nM
- Kd (4A01v3-8): 0.169 nM
- Kd (4A01v9): 0.144 nM
- Kd (4A01v3): 0.162 nM
- Kd (4A01v3-4): 0.252 nM
- Kd (4A01v1): 0.184 nM
- Kd (4A01v3-5): 0.162 nM
B1: rat (other)
chain: EAHKSEIAHRFKDLGEQHFKGLVLIAFSQYLQKCPYEEHIKLVQEVTDFAKTCVADENAENCDKSIHTLFGDKLCAIPKLRDNYGELADCCAKQEPERNECFLQHKDDNPNLPPFQRPEAEAMCTSFQENPTSFLGHYLHEVARRHPYFYAPELLYYAEKYNEVLTQCCTESDKAACLTPKLDAVKEKALVAAVRQRMKCSSMQRFGERAFKAWAVARMSQRFPNAEFAEITKLATDVTKINKECCHGDLLECADDRAELAKYMCENQATISSKLQACCDKPVLQKSQCLAEIEHDNIPADLPSIAADFVEDKEVCKNYAEAKDVFLGTFLYEYSRRHPDYSVSLLLRLAKKYEATLEKCCAEGDPPACYGTVLAEFQPLVEEPKNLVKTNCELYEKLGEYGFQNAVLVRYTQKAPQVSTPTLVEAARNLGRVGTKCCTLPEAQRLPCVEDYLSAILNRLCVLHEKTPVSEKVTKCCSGSLVERRPCFSALTVDETYVPKEFKAETFTFHSDICTLPDKEKQIKKQTALAELVKHKPKATEDQLKTVMGDFAQFVDKCCKAADKDNCFATEGPNLVARSKEALA
